Test results: the supplement of paper PMC9170038

What was measured:
MS2 coat protein = experiment: apparent KD of MS2 coat protein; higher = weaker reporter binding; settings: Eterna round: R107
Method: (§1)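 RNA-MaP round R107: designed RNA switches with theophylline, tryptophan, arginine or FMN aptamers are transcribed on-chip within common flanks. They are titrated with SNAP-549-labelled MS2 coat protein in RNA-MaP buffer (100 mM Tris pH 7.5, 80 mM KCl, 4 mM MgCl2), without ligand or with the indicated ligand. Median apparent KD per design.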

[1] = tested on: K4 kissing-loop RNA reporter; experiment: apparent KD of K4 kissing-loop reporter; higher = weaker reporter binding; settings: Eterna round: R107;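 also: bound reporter read as fluorescence of individual clusters on recovered sequencing chips by microscopy, with normalized cluster intensities fitted with a binding model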
Method: as §1, with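 “a labelled K4 kissing-loop RNA reporter” for “SNAP-549-labelled MS2 coat protein”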

[2] = input ligand: theophylline 20 uM
[3] = input ligand: theophylline 2 mM
[4] = input ligand: tryptophan 2.4 mM

Sequence | apparent KD of MS2 coat protein (MS2 coat protein; input ligand: arginine 13.2 mM) [nM] | apparent KD of MS2 coat protein (MS2 coat protein; input ligand: none) [nM] | apparent KD of MS2 coat protein (MS2 coat protein; [2]) [nM] | apparent KD of MS2 coat protein (MS2 coat protein; [3]) [nM] | apparent KD of MS2 coat protein (MS2 coat protein; [4]) [nM] | apparent KD of K4 kissing-loop reporter ([1]; input ligand: FMN 200 uM) [nM] | apparent KD of K4 kissing-loop reporter ([1]; input ligand: arginine 13.2 mM) [nM] | apparent KD of K4 kissing-loop reporter ([1]; input ligand: none) [nM] | apparent KD of K4 kissing-loop reporter [1, 2] [nM] | apparent KD of K4 kissing-loop reporter [1, 4] [nM]
AAAAUAAACUCGGCCGCCACUCAACGGACCCUUUGGACAUGAGGAUCACCCAUGUAUUUUGGAAAGAGGACCGGGAGAAAUAAAA [Exclusion - Trytophan B] | 8.32 | 8.35 | 17.8 | 11.7 | 12.2 | – | – | – | – | –
AAAAUAAAUAAAACACGUAACAUGAAGGAUACCAGACAGGAAACUGUCCCUUGGCAGCCUCUACAUGAGGAUCACCCAUGUCGUG [Mat - Same State Theophlline A - Mod of Eli - D17] | 112 | – | 128 | – | 266 | – | – | – | – | –
AAAAUAGAAGGAAGACAAAUAGAUACAGAAGGAGCGUAGGAAACUACAGGUAGGUCGCUGGAAAACAUGAGGAUCACCCAUGUAG [SSArg A #22 Slice of Pi Skeleton] | 31.5 | 40.6 | 54 | 46.9 | 42.6 | – | – | – | – | –
AAAAUCCUAUCUGAGGAUCACCCAGGUGAAGGAGCGCCCGAAAGGGCAGGUAGGUCGCACCUGAGGAUCACCCUGGUAACCUAAA [ArgEX 10 #DoubleMS2 #OpenEnded #AlternativeMS2] | 85.7 | 102 | 105 | 123 | 88.5 | – | – | – | – | –
AAACAUGAGGAUCACCCAUGUCCUCCUGUCCGAGGACCGGUACGGCCGCCACUCGGUUCUCGGGAGGAUGGUCAAAGACUAUCCA [Omei Trp A SS B v9] | 120 | – | 327 | 332 | – | – | – | – | – | –
AAACAUGAGGAUCACCCAUGUCCUCGUGAUCGAGGACCGGUACGGCCGCCACUCGGUCCUCGCGAGGUGGAGUCAAAGACUCCAA [Omei Trp A SS A v7] | 73.9 | 182 | 215 | 115 | 69.5 | – | – | – | – | –
AAACGCCACGGAAGGAGCGACAUGAGGAUCACCCAUGUAGAAGUGGCGGAUGCACCCUCCUGUCAGGUAGGUCGCCGUGCGCCAA [XArg-B24] | 17.1 | 21.2 | 39 | 29.7 | 22.4 | – | – | – | – | –
AAAGACAUGAGGAUCACCCAUGUGGGUGGGCGAGGACCGGUACGGCCGCCACUCGUGGGCGGGAAGGGAUAUUUAAUAAGGAAGA [same state--tryptophan A 1st shot] | 50 | 102 | 155 | 272 | 131 | – | – | – | – | –
AACAGACGAGACGAUACCAGUCUCUUAGCGCACAUGAGGAUCACCCAUGUUGGCAAGCUCGACCCUUGGCAGCGUACCUUUGAUC [theeternabot_sameState_MS2_Theo_B_6] | 23.8 | – | 34.3 | – | 24.3 | – | – | – | – | –
AACAUACAAUUUUAGGUGGAUAUAAGGCGGCGAGGACCGGUACGGCCGCCACUCGCGUACAUGAGGAUCACCCAUGUCUGAAACU [Same State - Tryptophan A (Freestyle 5)] | 14.6 | 19.8 | 28.1 | 28.9 | 24.4 | – | – | – | – | –
UGUCGAGUGAUGUUCGAUGUGGUGCAUUCAGAGGAUAUAGGGUGGGCUAGAAGGCUGAAAAGUGCUUCGAGUGAUGUUCGAAGAU [Exclusion FMN A GF8] | – | – | – | – | – | 70.6 | 117 | 144 | 132 | 110
UGUCUUUUUUUGAUGUUUUUUGUAUAAUGGCAGGAUAUCGUAGAGGCGAGAAGGGCUUUUAUGCGUUAUGAGUGAUGUUUGUAGG [vevvmullin] | – | – | – | – | – | 321 | 240 | 302 | 295 | 220
UGUGAGCUGUCGACAAAAGUCGACUAAAGCGAGGAUAUGACGAAAGUCAGAAGGCGUCAAUAAUGGAGUGAUGUUCCUGCUCACU [FmnA 9 G29] | – | – | – | – | – | 306 | 436 | 596 | 489 | 406
UGUGAUGAGUAGAGUGAUGUUUUGAAGGAUACCAGAGUGUUGUUAUUCCCUUGGCAGCUUGAGUGAUGUUUGAUGUUGUUGUAGU [zizmullin] | – | – | – | – | – | 303 | 213 | 248 | 246 | 196
UGUGGAGAAUAUGAUACCAGCAGUGAGAGAGAGGAAGUAUAGUGAUGUUAUAUGAGAGAAUGCCCUUGGCAGCAUAAGAAGAAGG [SSTheophylB.D] | – | – | – | – | – | 216 | 155 | 170 | 277 | 186
UGUGUACCGGGAAGGAGCGUGAAUGAGAAUGGAUAUAGUGAUGUUAUAUAUACGAACGAAUCGCAGGUAGGUCGCCCGGAUCCCU [SSArgB.Y] | – | – | – | – | – | 418 | 408 | 432 | 444 | 345
UGUGUUGUUUUGAUGUUUGGUGUUUGUUGGCAGGAUAUCGUAGAGGCGAGAAGGGCUUUGUUGCGGUAUGAGUGAUGUUUGUAGG [szzrmullin] | – | – | – | – | – | 349 | 174 | 295 | 244 | 255
UGUUAUGUAUCAGGAUAUUAGUGAUGUUUGUUUAUGUUAGUGAUGUUGAUAUUUGUUUUAUGUAUUUAAGAAGGGAUUGAGAAGU [ffcfxmullin] | – | – | – | – | – | 62.1 | 21.4 | 45.6 | 30.2 | 49.3
UGUUUUUACUGAAGGAGCGGCAAUUGAUACGUAGAUAUAGUGAUGUUAUAUAAGAUAGAGAGCCAGGUAGGUCGCAGAGUGUUUC [ExArgB.aA] | – | – | – | – | – | 250 | 195 | 194 | 194 | 172
UUAAAAUAUAUAAAUAAUAAGGGAAUUGAUACCAGACAGAAUUCUGUCCCUUGGCAGCAGUGAUGUUGUUGCAAUUUAAAUAAUU [AK1 Exc Theophylline A] | – | – | – | – | – | 104 | 148 | 112 | 136 | 85.7

Sequence | apparent KD of MS2 coat protein (MS2 coat protein; input ligand: arginine 13.2 mM) [nM] | apparent KD of MS2 coat protein (MS2 coat protein; input ligand: none) [nM] | apparent KD of MS2 coat protein (MS2 coat protein; [2]) [nM] | apparent KD of MS2 coat protein (MS2 coat protein; [3]) [nM] | apparent KD of MS2 coat protein (MS2 coat protein; [4]) [nM] | apparent KD of K4 kissing-loop reporter ([1]; input ligand: FMN 200 uM) [nM] | apparent KD of K4 kissing-loop reporter ([1]; input ligand: arginine 13.2 mM) [nM] | apparent KD of K4 kissing-loop reporter ([1]; input ligand: none) [nM] | apparent KD of K4 kissing-loop reporter [1, 2] [nM] | apparent KD of K4 kissing-loop reporter [1, 4] [nM]
UUAAUAAUUCAAGGAUAUGUUUUCUAUUUCGAGUGAUGUUCGGUAUUAAUAAAUUUAAUAGAUUAUACAGAAGGUGAUGGAUAGU [Cynwulf-mod#5] | – | – | – | – | – | 108 | 101 | 84.2 | 99.1 | 65.8
UUAGAGAUCUCAGGAUAUGAGUGAUGUUGGUGUCAAGAUCUGAGAUAGAAUUCUAUCUCAGAUCAAUCAGAAGGGAGAUCUCAUU [AK2.2 Exc FMN B] | – | – | – | – | – | 325 | 294 | 483 | 485 | 413
UUAGUCUAGAGAAGGAGCGAGUGAUGUUUGCUAAGAUCUAUGAUAUCAUAGAUCAAAUUUACUCAGGUAGGUCGCUCUAGACAUU [AK4 Exc Arginine B] | – | – | – | – | – | 294 | 53.1 | 182 | 165 | 137
UUAUAUAAGGGAAGGAGCGCGUGGGCGCAGUGAUGUUGCGCCCGACAUCACUUCAACUUAACGCAGGUAGGUCGCCCUUUUAAUA [Arginine B (Excl) V4] | – | – | – | – | – | 188 | 194 | 209 | 206 | 209
UUCAUCGUGGUUCACGGGUGGUAUGAAACGCGAGGACCGGUACGGCCGCCACUCGGUUCCGCUUGUUGAGUGAUGUUCAAUAUUU | – | – | – | – | – | 239 | 333 | 290 | 323 | 257
UUCUUGAUGGAAACAUCGAGGAUUACUGAUACCAGUAUCGAUAGAUACCCUUGGCAGCAGAAUCAGUAAUCACGAGUGAUGUUCG [Ex Theophylline A K4 6] | – | – | – | – | – | 662 | 497 | 841 | 583 | 460
UUGAGCCUGACGUAAGUCAGGCUCUGCGAGCGAGGACCGGUACGGCCGCCACUCGGUGCAGUGAUGUUGCAUGGCCGCAAGGCCG [#2 Exclusion - Tryptophan A Attempt #15 (HarryS)] | – | – | – | – | – | 278 | 257 | 363 | 259 | 339
UUGAUAUGAUAGUAUCCUGUUUGAUAAAGGCAGGAUAUCGAAAAUUCGAGAAGGGCCAUUAUAUGCAGUGAUGUUGCAAAUAAGU [Exclusion FMN A Gf 24] | – | – | – | – | – | 76.8 | 68.4 | 52.6 | 69 | 43.6
UUGGAAAUCAGAAGGAGCGUCUAAAAUAAGAGAACCAGUGAUGUUGGUUUUAUUUAAUGAAGACAGGUAGGUCGCUGAAUUUUUA [Same State Arginie B GF 19] | – | – | – | – | – | 100 | 95.2 | 99.3 | 96.1 | 94.9
UUGGAGUGAUGUUCCAUGUCUUGAGCCGAAGGAGCGCCUUUCUAGGCAGGUAGGUCGCGGCAGAAGGUACCAGUGAUGUUGGAAA [Same State Arginine A GF9] | – | – | – | – | – | 161 | 225 | 283 | 222 | 164
UUGUUUAACUGAAGGAGCGGCAAUUGAUACGUAGAUAUAGUGAUGUUAUAUAAGAUAGAGAGCCAGGUAGGUCGCAGAGGUGUUU [ExArgB.R] | – | – | – | – | – | 231 | 227 | 246 | 219 | 190
UUUAUGAUGUCGGCCGCCACUGGAUUAAUAUGUGUGUAAUCUAGUUCUGAGUGAUGUUUAGAGUCCAGGACCGGGACAUUUGUUA [#11 K4 Tryptophan B Exclusion] | – | – | – | – | – | 542 | 373 | 522 | 649 | 452
UUUAUUAAGACGGCCGCCACUGAAUUAGAGUGAUGUUCUAAAAUUACUAAAUUAAAUUUAUUCAACAGGACCGGGUCAAUUAUUA [JR_SSTryptoB_Sub010] | – | – | – | – | – | 399 | 405 | 461 | 432 | 513
UUUCUACCGGGAAGGAGCGUGAAUGAUAAUGGAUAUAGUGAUGUUAUAUAUACGAACGAAUCGCAGGUAGGUCGCCCGGAUGACU [SSArgB.T] | – | – | – | – | – | 586 | 503 | 724 | 550 | 486
UUUCUUUUAAUAACACUUUAUACAACUGAAGGAGCGACAAUAAAGUCAGGUAGGUCGCAGAAUUAAUGAGUGAUGUUCAUAUUUA [JR_ExcArginiA_Sub012] | – | – | – | – | – | 95.4 | 197 | 121 | 180 | 83
UUUGGAAGCGGUGUUGAUUAGGGAGCGGAAGGAGCGCCGAUUAUGGCAGGUAGGUCGCCGGAAUGUAGUGAUGUUGCAUAGAGGG [ExArgA.W] | – | – | – | – | – | 209 | 234 | 202 | 263 | 83.9
UUUGGAGUGGGAGGAUAUCCUAAUAUGGGUGAUGUUAGCGAUGUUGAAGGUGUAGUGAUGUUAUGCGGAGAAGGCCCACUGUAGA [BDazzled - #19 - Exc. FMN B] | – | – | – | – | – | 95 | 78.8 | 131 | 85.6 | 89.2
UUUGGUAUCUCGGCCGCCACUCGUGGGAAAUGGGCCUCAGGGAUAUAGUGAUGUUAUGUAAAGAAGAGGACCGGGAGAAGGAAGG [ExTryptoB.Dk] | – | – | – | – | – | 343 | 232 | 355 | 481 | 208
UUUGGUUUCUCGGCCGCCACUCGUUGUCUAUCGGCUUCAGGGAUAUAGUGAUGUUAUGUAUAGAAGAGGACCGGGAGAAGGUUUU [ExTryptoB.Dw] | – | – | – | – | – | 467 | 602 | 603 | 864 | 398
